Reference: the supplement of paper PMC10567573

B1: TMEM192 (parent)
chain: ILGKVILWILHLLLECYIQYHHSK
B2: OAS1 (parent)
chain: TPAKSLDKFIEDYLLPDTCFRMQI

Variants of: B1
Assay: protein stability index of a GFP-peptide fusion (GPS, HEK-293T) (PSI 1-6); higher = more stable
Conditions: c terminus: a fixed tail appended
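Also: lentivirally expressed fusions sorted by FACS into six bins by GFP to DsRed ratio, PSI derived from sequencing read proportions per bin multiplied by bin number.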

Protein stability index, by site and new letter:
V5: S 3.18 | P 1.85 | Q 2.86 | D 3.49 | N 2.55 | W 3.91 | T 2.49 | G 3.88 | E 3.81 | K 2.08 | R 2.43 | C 2.73 | A 2.85 | M 3.23
H21: G 3.35 | V 3.35 | I 3.57 | P 2.65 | Y 4.47 | S 2.67 | L 2.36 | W 2.55 | T 2.54 | R 1.92 | F 3.45
Y20: A 2.9 | F 1.26 | Q 4.39 | V 3.38 | S 3.62 | R 1.94 | H 1.97 | G 2.11 | P 3.57 | D 2.2 | K 2.51 | N 2.5 | E 3.48 | T 4.2 | L 3.1 | M 3.73
K4: F 3.11 | L 3.75 | T 2.8 | R 1.83 | N 2.98 | Y 2.87 | D 3.04 | P 1.73 | E 2.46 | I 2.81 | S 2.9 | G 3.12 | W 2.93 | V 2.92 | A 2.97 | H 4.67
I9: K 3.67 | Y 2.94 | T 4.05 | P 3.29 | D 2.89 | C 2.61 | R 2.96 | L 2.68 | H 3.16 | V 3.3 | G 1.96 | F 3.71 | W 3.09 | E 4.08
I6: N 2.86 | S 3.76 | K 3.39 | R 2.74 | V 3.41 | Y 2.98 | Q 3.64 | C 2.94 | M 2.24 | D 3.23 | A 1.4 | H 3.07 | L 3.74 | E 2.55
E15: S 2.14 | C 2.82 | F 2.44 | D 2.1 | Q 3.19 | K 2.68 | N 3.35 | I 3.52 | H 3.19 | P 3.23 | L 3.05 | T 2.4
I1: M 3.36 | L 3.4 | C 2.82 | W 2.22 | G 3.43 | P 2.56 | K 1.79 | S 3.41 | R 2.92 | T 3.49 | F 2.81 | H 2.88 | V 3.68
K24: T 3.66 | C 2.89 | H 2.07 | D 2.86 | V 2.48 | E 3.43 | F 3.92 | A 2.69 | G 3.14 | W 3.65 | N 3.06 | R 3.46 | P 3 | I 2.38 | L 2.65
L13: P 3.39 | H 2.83 | T 2.88 | W 2.21 | Y 2.97 | S 2.98 | A 3.26 | G 2.25 | D 2.47 | N 3.18 | Q 2.11 | F 2.5 | C 2.76 | K 2.9
L7: K 2.36 | W 3.41 | Y 2.85 | G 4.45 | N 2.51 | T 3.57 | S 3.17 | Q 3.32 | M 1.54 | E 3.07 | H 2.6 | R 1.75 | V 1.74
W8: H 3.31 | L 2.26 | S 3.6 | P 2.6 | Q 2.89 | G 2.02 | Y 2.98 | R 2.25 | I 2.08 | T 3.65 | V 3.11 | E 2.47 | A 2.92
H22: K 3.66 | Y 3.11 | W 3.65 | M 1.96 | D 3.4 | G 2.63 | F 2.56 | P 2.33 | S 3.42 | V 2.95 | L 1.94 | C 1.54
I18: P 2.44 | M 2.03 | E 2.99 | Y 2.24 | R 2.36 | V 3.96 | D 2.61 | F 3.01 | S 2.74 | K 3.4 | A 4.65 | W 3.7 | L 3.64 | Q 3.46 | T 2.31 | N 1.48
L12: D 3.31 | H 2.19 | N 3.52 | R 2.87 | W 3.59 | E 3.21 | A 3 | T 3.88 | G 3.98 | Y 2.14 | M 2.29 | V 2.88 | Q 4.15 | S 3.61 | K 2.69 | P 3.07
Q19: N 2.91 | Y 3.49 | M 2.97 | V 3.16 | G 3.15 | D 3.64 | A 2.58 | F 2.49 | P 2.26 | R 2.9 | W 2.36 | C 3.13
S23: L 3.84 | G 3.2 | F 2.9 | D 2.57 | Q 2.32 | N 4.27 | Y 2.72 | I 2.68 | P 1.54 | W 3.3 | E 2.49
C16: T 3.84 | P 2.88 | Q 2.86 | N 3.32 | W 2.31 | Y 3.21 | S 5.42 | F 2.6 | I 2.95
H11: P 3.26 | Y 2.56 | Q 2.29 | C 3.27 | I 3.89 | W 2.94 | R 3.16 | S 2.22 | T 2.63 | K 3.6 | V 3.77 | M 4.49 | G 2.09
L14: P 3.38 | Y 3.51 | V 4.41 | Q 2.28 | R 2.71 | N 3.68 | G 3.05 | W 1.68 | C 2.25 | F 2.75 | I 3.72 | S 2.43 | D 3.16 | K 2.31 | H 3.19 | A 2.08 | E 3.72 | T 3.98
L10: K 1.75 | A 2.54 | V 2.85 | E 5.03 | R 1.98 | I 3.22 | M 3.36 | T 2.19 | D 2.76 | F 3.04 | W 3.83 | S 2.3 | C 1.5 | N 3.04
L2: P 2.74 | W 2.18 | Q 2.41 | F 2.86 | R 2.75 | T 3.29 | V 3.54 | A 2.41 | K 3.23 | N 2.93
Y17: E 3.46 | M 2.85 | D 2.2 | T 1.81 | K 2.99 | P 3.26 | L 2.59 | R 2.2 | W 3.9 | G 3.49 | C 2.8 | A 2.48 | F 3.16 | Q 2.67 | S 3.71 | I 3.59
G3: R 3.69 | K 3.66 | D 3.06 | L 2.76 | S 1.95 | I 2.58 | T 3.14 | H 2.67 | P 3.89 | Y 3.82 | E 2.62

Variants of: B2
Assay: as above
Conditions: c terminus: a fixed tail appended

Protein stability index: each site, then its substitutions
T1: E 1.7 | N 3.42 | L 3.21 | K 2.84 | G 3.6 | A 2.48 | I 2.59 | D 1.82 | H 3.45 | C 2.39 | M 1.9
